From patent publication US6600012 (BIOMIRA, dated 2003)

B1: SIINFEKL, 8-mer ovalbumin (OVA) peptide (peptide)
peptide: SIINFEKL
notes: It is the positive control for HLA.A2 upregulation and the negative control for killing

Tests used:
[1] = molecular target: T1, HLA.A2 on T2 mutant cells; test: T2 cell HLA.A2 upregulation assay, flow cytometry
T1 construct: MHC class I molecule on the T2 cell surface; also called HLA.A2.1; class I on T2 cells

[2] = molecular target: T1, HLA.A2 on T2 mutant cells; test: T2 cell HLA.A2 upregulation assay, flow cytometry with MA2.1

Binder	binding result [1]	% Change in mean channel intensity [2]
B1	binds	
GVTSAPDTR [GVTSAPDTR, MUC-1 tandem repeat synthetic 9 mer]		12%
APDTRPAPG [APDTRPAPG, MUC-1 tandem repeat synthetic 9 mer]		66%
DTRPAPGST [DTRPAPGST, MUC-1 tandem repeat synthetic 9 mer]		52%
PDTRPAPGS [PDTRPAPGS, MUC-1 tandem repeat synthetic 9 mer]		3%
TSAPDTRPA (also called TSA 9 mer; 9 mers TSA . .) [TSAPDTRPA, MUC-1 tandem repeat synthetic 9 mer]		256%
TSAPDTR (also called 7 mer TSA . . . peptide) [TSAPDTR, MUC-1 synthetic 7 mer]	no binding (tested: 50 µM/well)	
VTSAPDTRP [VTSAPDTRP, MUC-1 tandem repeat synthetic 9 mer]		29%
